Measurements from PMC10718521, “Complexity of αvβ6-integrin targeting RGD peptide trimers: emergence of non-specific binding by synergistic interaction” (RSC Medicinal Chemistry, 2023).

Tests used:
[1] = in vivo; parameters: species or system mice; details: CB17 SCID, mouse, total radioactivity
Source text: The biodistribution of all ^68Ga-labeled peptide trimers was investigated in severe combined immunodeficiency (SCID) mice bearing subcutaneous xenografts of the αvβ6-integrin expressing human lung adenocarcinoma cell line H2009 on their right shoulders.
(§1) Unless otherwise noted, the materials and the instrumentation used (analytical and preparative HPLC, ESI-MS, gamma counter, centrifuge), and the experimental procedures (^68Ga radiolabeling and radio-TLC for quality control, determination of log D7.4, cultivation of H2009 human lung adenocarcinoma cells, generation of tumor xenografts in CB17 SCID mice, small-animal PET, and biodistribution) were described before.[19] All animal experiments have been carried out according to applicable law and institutional guidelines of Technical University of Munich, and were approved by the responsible local authority (Regierung von Oberbayern). The H2009 cells were regularly authenticated and tested for mycoplasma contamination. The affinities of the pentynoic amide functionalized peptides were determined employing a well-established ELISA protocol on immobilized integrins.[36] TRAP-triazide,[38]FF (previously termed AvB6),[32] and YY (also referred to as Tyr2-alkyne)[33] were synthesized as described previously. RP-HPLC for assessment of compound polarity was done on a 150 × 4.6 mm ReproSil-Pur 120 C18-AQ 5 μm column, with a flow of 0.75 mL min^−1 and a gradient of 10–50% MeCN in water, both containing 0.1% trifluoroacetic acid, within 15 min. The required ^natGa-complexes of the peptide trimers were synthesized by reaction with equimolar amounts of aq. GaCl3 as described.[19]

[2] = type: physicochemical; details: pH 7.4
Protocol: The trimers were labeled with ^68Ga for biodistribution and small-animal PET experiments employing a fully automated method.[39] Non-radioactive reference compounds were obtained by complexation of equimolar amounts of ^natGa^3+ in form of the aq. chloride solution.[39] The polarity of the ^68Ga or ^natGa^3+ containing conjugates, respectively, was assessed by two established proxies, namely the n-octanol/water distribution coefficient at pH 7.4, log D7.4, and the retention time tR on a reverse-phase HPLC column with a suitable liquid-phase gradient (10–50% acetonitrile in water with 0.1% trifluoroacetic acid) (see Fig. 2a). […] A measurable decrease of the log D7.4 was only observed for ≥3 Tyr. […]
as §1

[3] = tumor/organ ratio Heart (myocard)
[4] = tumor/organ ratio Large intestine (empty)
[5] = tumor/organ ratio Small intestine (empty)
[6] = tumor/organ ratio Stomach (empty)

Q: Which tissue uptake at 1.5 h ([1]; Adrenals uptake) does the source give for `CC(C)C[C@@H]1NC(=O)[C@H](CC(=O)O)NC(=O)CNC(=O)[C@H](CCCNC(=N)N)NC(=O)[C@H](Cc2ccccc2)NC(=O)[C@H](CCCCNC(=O)CCc2cn(CCCNC(=O)CCP(=O)(O)CN3CCN(CP(=O)(O)CCC(=O)NCCCn4cc(CCC(=O)NCCCC[C@H]5C(=O)N[C@@H](Cc6ccccc6)C(=O)N[C@@H](CCCNC(=N)N)C(=O)NCC(=O)N[C@@H](CC(=O)O)C(=O)N[C@@H](CC(C)C)C(=O)N[C@@H](C)C(=O)N[C@@H](Cc6ccccc6)C(=O)N6CCC[C@@H]6C(=O)N5C)nn4)CCN(CP(=O)(O)CCC(=O)NCCCn4cc(CCC(=O)NCCCC[C@H]5C(=O)N[C@@H](Cc6ccccc6)C(=O)N[C@@H](CCCNC(=N)N)C(=O)NCC(=O)N[C@@H](CC(=O)O)C(=O)N[C@@H](CC(C)C)C(=O)N[C@@H](C)C(=O)N[C@@H](Cc6ccc(O)cc6)C(=O)N6CCC[C@@H]6C(=O)N5C)nn4)CC3)nn2)N(C)C(=O)[C@H]2CCCN2C(=O)[C@H](Cc2ccccc2)NC(=O)[C@H](C)NC1=O` (68Ga complex, metal not drawn) [Y1F] here?
A: 1.26 ± 0.24 %ID/g

Q: What about the tissue uptake at 1.5 h ([1]; Blood uptake) of the same molecule?
A: 2.57 ± 0.33 %ID/g

Q: And the tissue uptake at 1.5 h ([1]; Heart (myocard) uptake)?
A: 1.2 ± 0.16 %ID/g

Q: And the tissue uptake at 1.5 h ([1]; Kidneys uptake)?
A: 111 ± 15.3 %ID/g

Q: And the tissue uptake at 1.5 h ([1]; Large intestine (empty) uptake)?
A: 4.43 ± 1.28 %ID/g

Q: What about the tissue uptake at 1.5 h ([1]; Liver uptake) of the same molecule?
A: 3.86 ± 0.17 %ID/g

Q: What about the tissue uptake at 1.5 h ([1]; Lung uptake) of the same molecule?
A: 8.81 ± 0.64 %ID/g

Q: And the tissue uptake at 1.5 h ([1]; Muscle uptake)?
A: 0.97 ± 0.48 %ID/g

Q: And the tissue uptake at 1.5 h ([1]; Pancreas uptake)?
A: 0.61 ± 0.1 %ID/g

Q: What about the tissue uptake at 1.5 h ([1]; Small intestine (empty) uptake) of the same molecule?
A: 2.86 ± 0.57 %ID/g

Q: And the tissue uptake at 1.5 h ([1]; Spleen uptake)?
A: 3.48 ± 0.49 %ID/g

Q: What about the tissue uptake at 1.5 h ([1]; Stomach (empty) uptake) of the same molecule?
A: 7.37 ± 1.23 %ID/g

Q: What about the tissue uptake at 1.5 h ([1]; Tumor H2009 uptake) of the same molecule?
A: 8.08 ± 1.35 %ID/g

Q: And the tissue to tissue ratio at 1.5 h ([1]; tumor/organ ratio Adrenals)?
A: 6.5 ± 0.8

Q: What about the tissue to tissue ratio at 1.5 h ([1]; tumor/organ ratio Blood) of the same molecule?
A: 3.2 ± 0.6

Q: And the tissue to tissue ratio at 1.5 h [1, 3]?
A: 6.8 ± 1.2

Q: What about the tissue to tissue ratio at 1.5 h ([1]; tumor/organ ratio Kidneys) of the same molecule?
A: 0.1

Q: What about the tissue to tissue ratio at 1.5 h [1, 4] of the same molecule?
A: 2 ± 0.9

Q: What about the tissue to tissue ratio at 1.5 h ([1]; tumor/organ ratio Liver) of the same molecule?
A: 2.1 ± 0.4

Q: And the tissue to tissue ratio at 1.5 h ([1]; tumor/organ ratio Lung)?
A: 0.9 ± 0.1

Q: What about the tissue to tissue ratio at 1.5 h ([1]; tumor/organ ratio Muscle) of the same molecule?
A: 9.5 ± 3.2

Q: What about the tissue to tissue ratio at 1.5 h ([1]; tumor/organ ratio Pancreas) of the same molecule?
A: 13.3 ± 2.3

Q: And the tissue to tissue ratio at 1.5 h [1, 5]?
A: 2.9 ± 0.9

Q: What about the tissue to tissue ratio at 1.5 h ([1]; tumor/organ ratio Spleen) of the same molecule?
A: 2.4 ± 0.2

Q: What about the tissue to tissue ratio at 1.5 h [1, 6] of the same molecule?
A: 1.1 ± 0.3

Q: And the “log D7.4” value [2]?
A: −1.4 to −1.5

Q: And the logD [2]?
A: -1.4 ± 0.1

Q: What does the source list for `CC(C)C[C@@H]1NC(=O)[C@H](CC(=O)O)NC(=O)CNC(=O)[C@H](CCCNC(=N)N)NC(=O)[C@H](Cc2ccccc2)NC(=O)[C@H](CCCCNC(=O)CCc2cn(CCCNC(=O)CCP(=O)(O)CN3CCN(CP(=O)(O)CCC(=O)NCCCn4cc(CCC(=O)NCCCC[C@H]5C(=O)N[C@@H](Cc6ccccc6)C(=O)N[C@@H](CCCNC(=N)N)C(=O)NCC(=O)N[C@@H](CC(=O)O)C(=O)N[C@@H](CC(C)C)C(=O)N[C@@H](C)C(=O)N[C@@H](Cc6ccccc6)C(=O)N6CCC[C@@H]6C(=O)N5C)nn4)CCN(CP(=O)(O)CCC(=O)NCCCn4cc(CCC(=O)NCCCC[C@H]5C(=O)N[C@@H](Cc6ccc(O)cc6)C(=O)N[C@@H](CCCNC(=N)N)C(=O)NCC(=O)N[C@@H](CC(=O)O)C(=O)N[C@@H](CC(C)C)C(=O)N[C@@H](C)C(=O)N[C@@H](Cc6ccccc6)C(=O)N6CCC[C@@H]6C(=O)N5C)nn4)CC3)nn2)N(C)C(=O)[C@H]2CCCN2C(=O)[C@H](Cc2ccccc2)NC(=O)[C@H](C)NC1=O` (68Ga complex, metal not drawn) [Y1Y]?
A: tissue uptake at 1.5 h ([1]; Adrenals uptake): 1.57 ± 0.41 %ID/g; tissue uptake at 1.5 h ([1]; Blood uptake): 2.54 ± 0.37 %ID/g; tissue uptake at 1.5 h ([1]; Heart (myocard) uptake): 1.54 ± 0.61 %ID/g; tissue uptake at 1.5 h ([1]; Kidneys uptake): 91.2 ± 9.95 %ID/g; tissue uptake at 1.5 h ([1]; Large intestine (empty) uptake): 4.1 ± 0.84 %ID/g; tissue uptake at 1.5 h ([1]; Liver uptake): 4.39 ± 0.46 %ID/g; tissue uptake at 1.5 h ([1]; Lung uptake): 6.76 ± 2.02 %ID/g; tissue uptake at 1.5 h ([1]; Muscle uptake): 0.75 ± 0.17 %ID/g; tissue uptake at 1.5 h ([1]; Pancreas uptake): 0.64 ± 0.11 %ID/g; tissue uptake at 1.5 h ([1]; Small intestine (empty) uptake): 2.72 ± 0.36 %ID/g; tissue uptake at 1.5 h ([1]; Spleen uptake): 3.85 ± 0.86 %ID/g; tissue uptake at 1.5 h ([1]; Stomach (empty) uptake): 6.78 ± 0.72 %ID/g; tissue uptake at 1.5 h ([1]; Tumor H2009 uptake): 8.16 ± 2.01 %ID/g; tissue to tissue ratio at 1.5 h ([1]; tumor/organ ratio Adrenals): 5.3 ± 1.5; tissue to tissue ratio at 1.5 h ([1]; tumor/organ ratio Blood): 3.2 ± 0.7; tissue to tissue ratio at 1.5 h [1, 3]: 5.7 ± 2; tissue to tissue ratio at 1.5 h ([1]; tumor/organ ratio Kidneys): 0.1; tissue to tissue ratio at 1.5 h [1, 4]: 2 ± 0.5; tissue to tissue ratio at 1.5 h ([1]; tumor/organ ratio Liver): 1.8 ± 0.3; tissue to tissue ratio at 1.5 h ([1]; tumor/organ ratio Lung): 1.2 ± 0.2; tissue to tissue ratio at 1.5 h ([1]; tumor/organ ratio Muscle): 11.2 ± 3.4; tissue to tissue ratio at 1.5 h ([1]; tumor/organ ratio Pancreas): 12.7 ± 2.9; tissue to tissue ratio at 1.5 h [1, 5]: 3 ± 0.7; tissue to tissue ratio at 1.5 h ([1]; tumor/organ ratio Spleen): 2.2 ± 0.5; tissue to tissue ratio at 1.5 h [1, 6]: 1.2 ± 0.2; log D7.4 [2]: −1.4 to −1.5; logD [2]: -1.5 ± 0.1
